Here are results for 1 substance from US20230364234A1.

In test [1] the target is CD4-10-17b CAR with an inserted myc epitope, expressed on cells transduced with the SFFV/CAR-T-myc/GFP lentivirus (human) (UniProt P01730). The experiment in a line: cell-based or functional assay.
Test [2] has the same target. The experiment in a line: flow cytometry, primary human T cells transduced with SFFV/CAR-T-myc/GFP, gated CD4+GFP+. (A flow cytometer gives signals particle by particle.)
Test [3] shares this target. Description: flow cytometry, primary human T cells transduced with SFFV/CAR-T-myc/GFP, gated CD8+GFP+.

In test [1], 9E10 anti-myc epitope antibody showed an IFN-γ production by CD4+ GFP+ T cells (flow cytometry, overnight stimulation) of 3 fold. This substance yielded a percent of transduced CD4+ T cells bound in test [2] of 35%. The percent of transduced CD8+ T cells bound in test [3] was 25%.
